Experimental findings from article PMC8786652 (Cell reports, 2022) are described below.

The target of the experiment is recombinant stabilized SARS-CoV-2 Spike ectodomain (S-6P, HexaPro Spike), his-tagged (SARS-CoV-2, Wuhan-Hu-1 (HexaPro …, stabilised)). Put plainly: SPR. Background: Surface plasmon resonance follows binding to a sensor surface in real time, without labels.

B1: CV3-13 Fab (Fab, V domains shown)
VH: QVQLQQSGPGLVKPSQTLSLTCTVAGGSISSGTYYWSWIRQPAGKGLEWIGRIYTSGSANYNPSLKSRVTISVDTSKNQFSLRLSSVTAEDTAVYYCAREYSSSYYYFYYMDVWGKGTTVTVSS
VL: AIRMTQSPSSLSASVGDRVTITCQASQDISNYLNWYQQKPGKAPKLLIYVASNLETGVPSRFSGSGFGTDFTFTISSLQPEDIATYYCQQFDNLPYTFGQGTKLEIK
What is called Kd is the equilibrium constant for the complex coming apart. For B1, the dissociation constant (Kd) is approximately 55 nM.
